# Reference: patent US20090253131A1, “HYBRID FUSION REPORTER AND USES THEREOF” (Promega Corporation, priority 2007, published 2009)
# Like-named read-outs stand apart in the source and are kept apart here.
# Tests used:
# Experiment in all cases: cell-based or functional assay
# [1] = target: hRL (112-311)-FKBP (Renilla) (UniProt P27652)
# [2] = target: FKBP-hRL (112-311) (Renilla) (UniProt P62942)
# [3] = target: hRL (112-311)-FKBP (Renilla) (UniProt P27652); remark: listed apart in the source
# [4] = target: hRL (92-311)-FKBP (Renilla) (UniProt P27652)
# [5] = target: hRL (92-311)-FKBP (Renilla) (UniProt P27652); remark: listed apart in the source
# [6] = target: FKBP-hRL (92-311) (Renilla) (UniProt P62942)
# [7] = target: FKBP-hRL (92-311) (Renilla) (UniProt P62942); remark: listed apart in the source
# [8] = target: Rluc8 (112-311)-FKBP (Renilla) (UniProt P27652)
# [9] = target: Rluc8 (92-311)-FKBP (Renilla) (UniProt P27652)
# [10] = target: FKBP-hRL (112-311) (Renilla) (UniProt P62942); remark: listed apart in the source
# Sequence of FKBP-hRL (112-311) (Renilla) (P62942 other isoform, or with tags, fused parts or gaps): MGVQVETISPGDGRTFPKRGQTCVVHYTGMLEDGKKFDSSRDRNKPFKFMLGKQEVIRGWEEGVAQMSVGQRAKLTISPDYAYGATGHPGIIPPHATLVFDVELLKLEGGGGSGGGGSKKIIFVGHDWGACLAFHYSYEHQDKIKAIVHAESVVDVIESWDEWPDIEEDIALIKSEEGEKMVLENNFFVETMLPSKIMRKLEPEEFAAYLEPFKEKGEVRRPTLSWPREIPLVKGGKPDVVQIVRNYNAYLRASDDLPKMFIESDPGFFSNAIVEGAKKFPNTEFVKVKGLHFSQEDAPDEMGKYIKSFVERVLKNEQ
# Sequence of hRL (1-91)-FRB (P27652 other isoform, or with tags, fused parts or gaps): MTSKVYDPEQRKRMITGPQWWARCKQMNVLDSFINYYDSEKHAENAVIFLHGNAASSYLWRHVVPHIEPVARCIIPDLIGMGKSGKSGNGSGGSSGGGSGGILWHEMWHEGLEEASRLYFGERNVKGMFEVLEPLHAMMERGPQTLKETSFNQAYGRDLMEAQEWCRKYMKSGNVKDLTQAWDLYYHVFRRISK
# Sequence of FKBP-hRL (92-311) (Renilla) (P62942 other isoform, or with tags, fused parts or gaps): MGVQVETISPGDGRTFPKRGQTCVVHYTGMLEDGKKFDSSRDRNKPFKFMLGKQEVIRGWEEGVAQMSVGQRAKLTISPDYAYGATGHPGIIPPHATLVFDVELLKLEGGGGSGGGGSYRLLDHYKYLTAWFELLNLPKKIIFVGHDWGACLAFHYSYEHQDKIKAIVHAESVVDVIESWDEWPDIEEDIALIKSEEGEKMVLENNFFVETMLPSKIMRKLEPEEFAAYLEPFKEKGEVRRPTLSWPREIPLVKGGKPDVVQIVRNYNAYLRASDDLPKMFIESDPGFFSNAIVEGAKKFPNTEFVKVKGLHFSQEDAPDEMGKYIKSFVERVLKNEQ
# Sequence of hRL (92-311)-FKBP (Renilla) (P27652 other isoform, or with tags, fused parts or gaps): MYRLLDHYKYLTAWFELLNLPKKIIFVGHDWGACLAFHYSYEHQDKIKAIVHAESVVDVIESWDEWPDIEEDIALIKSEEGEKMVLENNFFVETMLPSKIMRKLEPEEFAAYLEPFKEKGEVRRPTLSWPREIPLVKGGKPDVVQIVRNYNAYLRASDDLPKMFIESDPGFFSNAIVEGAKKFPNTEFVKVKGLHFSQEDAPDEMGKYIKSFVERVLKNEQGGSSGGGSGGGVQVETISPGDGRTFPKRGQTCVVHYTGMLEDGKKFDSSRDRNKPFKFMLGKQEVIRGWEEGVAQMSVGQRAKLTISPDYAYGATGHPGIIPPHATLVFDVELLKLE
# Sequence of hRL (112-311)-FKBP (Renilla) (P27652 other isoform, or with tags, fused parts or gaps): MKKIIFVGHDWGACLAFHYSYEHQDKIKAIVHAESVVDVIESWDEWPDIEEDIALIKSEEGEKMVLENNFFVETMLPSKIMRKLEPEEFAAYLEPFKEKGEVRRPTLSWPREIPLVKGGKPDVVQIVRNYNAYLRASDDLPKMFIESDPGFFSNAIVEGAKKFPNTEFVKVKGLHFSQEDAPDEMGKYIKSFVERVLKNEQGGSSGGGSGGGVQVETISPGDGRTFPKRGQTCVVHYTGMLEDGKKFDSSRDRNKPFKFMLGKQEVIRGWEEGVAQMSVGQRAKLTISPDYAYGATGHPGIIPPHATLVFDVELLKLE
# Sequence of hRL (1-111)-FRB (P27652 other isoform, or with tags, fused parts or gaps): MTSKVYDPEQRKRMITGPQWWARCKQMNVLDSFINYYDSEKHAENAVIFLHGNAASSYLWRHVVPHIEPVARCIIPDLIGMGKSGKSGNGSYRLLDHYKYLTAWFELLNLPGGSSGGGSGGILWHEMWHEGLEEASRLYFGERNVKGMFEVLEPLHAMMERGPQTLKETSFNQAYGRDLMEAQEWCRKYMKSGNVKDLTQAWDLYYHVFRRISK
# Sequence of Rluc8 (112-311)-FKBP (Renilla) (P27652 other isoform, or with tags, fused parts or gaps): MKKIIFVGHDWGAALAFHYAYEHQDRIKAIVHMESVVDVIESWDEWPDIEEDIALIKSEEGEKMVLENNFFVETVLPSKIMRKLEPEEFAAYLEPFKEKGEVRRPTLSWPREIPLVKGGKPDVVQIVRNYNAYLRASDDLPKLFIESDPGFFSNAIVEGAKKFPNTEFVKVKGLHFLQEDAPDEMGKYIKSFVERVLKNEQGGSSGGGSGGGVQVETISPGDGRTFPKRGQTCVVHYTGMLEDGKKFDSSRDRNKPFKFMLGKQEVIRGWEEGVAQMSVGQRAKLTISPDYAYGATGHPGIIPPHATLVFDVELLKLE
# Sequence of Rluc8 (1-111)-FRB (P27652 other isoform, or with tags, fused parts or gaps): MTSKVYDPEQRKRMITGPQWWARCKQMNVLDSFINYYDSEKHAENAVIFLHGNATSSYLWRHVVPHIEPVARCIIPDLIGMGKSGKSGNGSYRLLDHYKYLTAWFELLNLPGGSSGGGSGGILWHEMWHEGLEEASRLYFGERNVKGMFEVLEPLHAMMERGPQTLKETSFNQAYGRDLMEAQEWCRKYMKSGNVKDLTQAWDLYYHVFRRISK
# Sequence of Rluc8 (1-91)-FRB (P27652 other isoform, or with tags, fused parts or gaps): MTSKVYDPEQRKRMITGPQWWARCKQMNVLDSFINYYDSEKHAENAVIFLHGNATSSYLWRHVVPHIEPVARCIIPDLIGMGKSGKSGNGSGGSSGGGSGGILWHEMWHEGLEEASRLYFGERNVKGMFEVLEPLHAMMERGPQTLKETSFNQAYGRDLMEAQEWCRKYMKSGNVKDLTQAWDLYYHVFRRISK
# Sequence of Rluc8 (92-311)-FKBP (Renilla) (P27652 other isoform, or with tags, fused parts or gaps): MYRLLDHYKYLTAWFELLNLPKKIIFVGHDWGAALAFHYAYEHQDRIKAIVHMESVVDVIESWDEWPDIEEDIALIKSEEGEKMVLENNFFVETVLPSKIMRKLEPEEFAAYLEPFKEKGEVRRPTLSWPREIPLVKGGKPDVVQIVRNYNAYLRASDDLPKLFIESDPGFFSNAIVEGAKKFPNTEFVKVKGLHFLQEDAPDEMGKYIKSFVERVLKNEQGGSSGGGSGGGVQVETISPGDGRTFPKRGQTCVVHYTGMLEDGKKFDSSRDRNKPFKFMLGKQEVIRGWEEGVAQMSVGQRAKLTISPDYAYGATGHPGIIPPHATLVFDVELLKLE
substance,measurement,setting,value
FRB-hRL (1-111) (from UniProt P42345 2021-2113; P27652 1-111),"Renilla luciferase activity, +rapamycin against no rapamycin",[1],51 fold
same,"Renilla luciferase activity, +rapamycin against no rapamycin",[2],5.3 fold
same,"Renilla luciferase activity, +rapamycin against no rapamycin",[3],46 fold
FRB-hRL (1-91) (from UniProt P42345 2021-2113; P27652 1-91),"Renilla luciferase activity, +rapamycin against no rapamycin",[4],10.4 fold
same,"Renilla luciferase activity, +rapamycin against no rapamycin",[5],134 fold
hRL (1-91)-FRB (from UniProt P27652 1-91; P42345 2021-2113),"Renilla luciferase activity, +rapamycin against no rapamycin",[6],13.5 fold
same,"Renilla luciferase activity, +rapamycin against no rapamycin",[7],8.6 fold
Rluc8 (1-111)-FRB (from UniProt P27652 1-111; P42345 2021-2113),"Renilla luciferase activity, +rapamycin against no rapamycin",[8],17 fold
Rluc8 (1-91)-FRB (from UniProt P27652 1-91; P42345 2021-2113),"Renilla luciferase activity, +rapamycin against no rapamycin",[9],4 fold
hRL (1-111)-FRB (from UniProt P27652 1-111; P42345 2021-2113),"Renilla luciferase activity, +rapamycin against no rapamycin",[10],114 fold
same,"Renilla luciferase activity, +rapamycin against no rapamycin",[2],81 fold
